The conditions of data set [1]: DAT precursor, UV-Vis absorption, peak 1.
Experimental: Spectroscopy was performed using a Synergy HT plate reader in with sample Corning Costar UV-transparent 96 well plates (Corning 3635). Initially samples were diluted to 1 mg/mL in either IPA or DIW and a dilution curve was made with each step reducing the concentration by half. The concentration chosen for measurement was the most concentrated sample that had the peak of interest entirely below 1.0 absorption units. When an appropriate concentration was found 100 μL of sample was then loaded into each well with samples loaded in triplicate. If the standard deviation between replicates exceeded 0.05 AU the measurement was repeated with fresh samples.
The conditions of data set [2]: pyrazoline bound to SilMA, derived from the named DAT. Here is the method:
Fluorophores bound to either silk or PEG-DA were generated by dissolving a DAT precursor to a final concentration of 100 μM in water for silk-bound fluorophores and either DIW, IPA or ethyl acetate (EtAc) for PEG-DA-bound fluorophores. These were reacted by exposure to 302 nm light (specs) for 10 minutes under constant stirring. To an opaque black 96-well plate (Corning 3915) was added 3 separate 100 μL aliquots of fluorophore solution. These were measured by a Molecular Devices SpectraMax M2 plate reader, exciting at either 300, 365 or 405 nm and recording spectra from 25 nm […] the excitation wavelength down to 650 nm with a 5 nm resolution.

The structures appear in SMILES notation. Where two headings read alike, the source gives them in different places.

For `Nc1ccc(-c2nnn(-c3ccccc3)n2)cc1` [DAT-8, 5-(4-aminophenyl)-2-phenyl-2H-tetrazole], the “Excitation λmax” value in data set [1] is 294 nm.

Take `O=C(O)c1ccc(-c2nnn(-c3ccc(O)cc3)n2)cc1` [DAT-4, 2-(4-hydroxyphenyl)-5-(4-carboxyphenyl)-2H-tetrazole]: the “Excitation λmax” value came to 296 nm in data set [1], 335 nm in data set [2] (pH 3) and 360 nm in data set [2] (pH 10). In addition, the “Emission λmax” value in data set [2] (pH 3) and in data set [2] (pH 10) was 530 nm in each case.

With `O=[N+]([O-])c1cccc(-c2nnn(-c3ccccc3)n2)c1` [DAT-7, 5-(3-nitrophenyl)-2-phenyl-2H-tetrazole], the “Excitation λmax” value in data set [1] is recorded as 266 nm.

Regarding `O=[N+]([O-])c1ccc(-c2nnn(-c3ccccc3)n2)cc1` [DAT-6, 5-(4-nitrophenyl)-2-phenyl-2H-tetrazole], the “Excitation λmax” value in data set [1] worked out at 296 nm.

Consider `O=C(O)c1ccc(-c2nnn(-c3ccc(S(=O)(=O)O)cc3)n2)cc1` [DAT-3, 2-(4-sulfophenyl)-5-(4-carboxyphenyl)-2H-tetrazole], for which the “Excitation λmax” value in data set [1] is listed as 279 nm; in data set [2] (pH 3), 385 nm; in data set [2] (pH 10), 375 nm. The “Emission λmax” value in data set [2] (pH 3) is reported as 490 nm; in data set [2] (pH 10), 460 nm.

In the case of `CCOC(=O)c1ccc(-n2nnc(-c3ccc(C(=O)O)cc3)n2)cc1` [DAT-2, 2-(4-(ethoxycarbonyl)-phenyl)-5-(4-carboxyphenyl)-2H-tetrazole], the “Excitation λmax” value in data set [1] was 265 nm; in data set [2] (pH 3) it was 370 nm; in data set [2] (pH 10), 350 nm. Besides, the figures for the “Emission λmax” value in data set [2] (pH 3) and in data set [2] (pH 10) were 460 nm and 455 nm, respectively.

The values are drawn from patent US20260124324A1, “PHOTOCLICK CHEMISTRY OF SILK FOR TEMPORARY UV TATTOOS” (Trustees of Tufts College, priority 2023, published 2026).
